Values of other authors, collected in PMC3472557.

Legend:
[1] = target: ASPP2 (Homo sapiens) (UniProt Q13625); experiment: BIAcore SPR
[2] = target: ASPP2 (Homo sapiens) (UniProt Q13625); experiment: solid-phase ELISA

Sequence of ASPP2 (Homo sapiens) (Q13625 whole entry): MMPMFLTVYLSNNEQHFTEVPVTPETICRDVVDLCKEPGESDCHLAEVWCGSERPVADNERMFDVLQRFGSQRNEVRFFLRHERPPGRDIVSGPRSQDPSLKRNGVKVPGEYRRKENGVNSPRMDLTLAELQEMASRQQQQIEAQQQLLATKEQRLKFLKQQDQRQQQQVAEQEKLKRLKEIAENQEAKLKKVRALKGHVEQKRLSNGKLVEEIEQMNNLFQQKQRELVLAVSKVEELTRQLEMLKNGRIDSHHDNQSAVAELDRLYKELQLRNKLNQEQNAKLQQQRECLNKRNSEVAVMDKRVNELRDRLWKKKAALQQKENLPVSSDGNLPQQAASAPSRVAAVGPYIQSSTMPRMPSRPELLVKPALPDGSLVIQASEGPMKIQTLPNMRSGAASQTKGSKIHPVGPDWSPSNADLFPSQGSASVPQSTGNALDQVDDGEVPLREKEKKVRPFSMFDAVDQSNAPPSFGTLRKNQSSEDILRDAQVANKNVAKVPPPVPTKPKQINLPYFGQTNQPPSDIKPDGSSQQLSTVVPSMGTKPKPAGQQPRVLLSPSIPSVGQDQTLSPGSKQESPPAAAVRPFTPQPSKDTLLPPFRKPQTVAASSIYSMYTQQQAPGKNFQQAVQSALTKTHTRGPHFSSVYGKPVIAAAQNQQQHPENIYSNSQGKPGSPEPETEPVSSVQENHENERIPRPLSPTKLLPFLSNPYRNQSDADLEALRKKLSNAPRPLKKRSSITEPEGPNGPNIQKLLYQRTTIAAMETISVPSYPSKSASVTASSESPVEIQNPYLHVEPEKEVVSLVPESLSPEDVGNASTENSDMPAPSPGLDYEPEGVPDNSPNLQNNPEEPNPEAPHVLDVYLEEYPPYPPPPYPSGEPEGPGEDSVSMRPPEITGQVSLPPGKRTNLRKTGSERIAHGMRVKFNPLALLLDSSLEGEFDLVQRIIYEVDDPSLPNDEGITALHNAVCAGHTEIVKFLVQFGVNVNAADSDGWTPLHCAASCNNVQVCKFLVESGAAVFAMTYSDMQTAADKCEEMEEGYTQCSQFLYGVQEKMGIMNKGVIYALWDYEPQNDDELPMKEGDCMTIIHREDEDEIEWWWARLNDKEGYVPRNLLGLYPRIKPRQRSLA

Kd [1]: 30 nM | Kd [2]: 23 nM
Substance: p53 (from UniProt P04637)
